Numbering of substitutions follows the chain as printed.

Among the data in publication PMC13360575 are Kd, koff and kon values, retold here.

Test [1] addresses chicken IgY (chicken). Briefly: BLI; Octet, SAX (streptavidin) biosensors; Fabs at multiple concentrations; KD from a kinetic 1:1 model, global fits (R^2 > 0.98); as described previously (ref. 7).
Test [2] addresses chicken IgY (chicken). Kind of test: BLI; Octet, SAX (streptavidin) biosensors; recombinant Fabs against IgY; KD from a kinetic 1:1 model, global fit over multiple concentrations (partial fits averaged for 3 low-affinity Fabs).

B1: Fab fragment of a high-affinity variant of clone 2.1 (2.1^hi) (Fab, V domains shown)
VH: EVQLQESGPSLVKPSQTLSLTCSVTGASITSGYWNWIRKFPGNRLEYMGYISYSGGTYYNPSLKSRISITRDTSKNQYYLQLNSVTTEDTATYYCARDFDVWGAGTTVTVSS
VL: DIVMTQSQKFMSTSVGDRVSVTCKASQNVGTNVGWFQQKPGQSPKSLIYSASYRYSGVPDRFTGSGSGTDFTLTISNVQSEDLAEYFCHQYYSYPLTFGSGTKLEIK
Turning to B1, in the test with chicken IgY (chicken) [1], the Kd came out at 0.062 nM.

B2: clone 2.1 Fab CB_07 (clonal burst) (Fab, V domains shown)
VH: B1 VH with A27D, R44K, G56S, A96G
VL: B1 VL with G34A, F36Y, S46A, H89Q, Y92K
B2: in the test with chicken IgY (chicken) [2], the Kd stood at 1.34 nM, the koff is 0.000349 s⁻¹ and the kon stood at 261000 M⁻¹ s⁻¹.

B3: clone 2.1 Fab TA_3 (Fab, V domains shown)
VH: B1 VH with A27D, R44K, G56S
VL: B1 VL with G34V, F36Y, S46A, H89Q, Y92N
As for B3, in the test with chicken IgY (chicken) [2], the Kd was determined as 54 nM, the koff amounted to 0.00767 s⁻¹ and the kon was found to be 142000 M⁻¹ s⁻¹.

B4: clone 2.1 Fab TA_4 (Fab, V domains shown)
VH: B1 VH with A27D, R44K, G56S
VL: B1 VL with G34V, F36Y, S46A, H89Q, Y92D
Regarding B4, in the test with chicken IgY (chicken) [2], the Kd was found to be 71.1 nM, the koff is 0.00792 s⁻¹ and the kon was 111000 M⁻¹ s⁻¹.

B5: clone 2.1 Fab L_10 (affinity ladder) (Fab, V domains shown)
VH: B1 VH with S10G, A27D, R44K, G56S, I67V, Y78H, A96G
VL: B1 VL with G34A, F36Y, S46A, H89Q, Y92K
In the case of B5, in the test with chicken IgY (chicken) [2], the Kd was 1.21 nM, the koff turned out to be 0.000462 s⁻¹ and the kon turned out to be 381000 M⁻¹ s⁻¹.

B6: clone 2.1 Fab CB_05 (clonal burst) (Fab, V domains shown)
VH: B1 VH with A27D, R44K, G56S, A96G
VL: B1 VL with G34A, F36Y, S46A, H89Q, Y92N
B6: in the test with chicken IgY (chicken) [2], the Kd is 6.76 nM, the koff is 0.00149 s⁻¹ and the kon came out at 221000 M⁻¹ s⁻¹.

B7: clone 2.1 Fab L_11 (affinity ladder) (Fab, V domains shown)
VH: B1 VH with A27D, R44K, G56S, K75T, Y94F
VL: B1 VL with F36Y, S46A, H89Q, Y92N
For B7, in the test with chicken IgY (chicken) [2], the Kd was 1.83 nM, the koff came to 0.00011 s⁻¹ and the on-rate (kon) came to 59800 M⁻¹ s⁻¹.

B8: clone 2.1 Fab TA_28 (Fab, V domains shown)
VH: B1 VH with A27D, R44K
VL: B1 VL with G34A, F36Y, S46A, H89Q, Y92N
Take B8: in the test with chicken IgY (chicken) [2], the Kd came out at 22 nM, the koff is 0.00309 s⁻¹ and the kon came out at 140000 M⁻¹ s⁻¹.

B9: clone 2.1 Fab TA_1 (Fab, V domains shown)
VH: B1 VH with A27D, Y53F, G56S
VL: B1 VL with F36Y, S46A, H89Q, Y92N
Take B9: in the test with chicken IgY (chicken) [2], the Kd was 2.84 nM, the koff was 0.000359 s⁻¹ and the kon amounted to 126000 M⁻¹ s⁻¹.

B10: clone 2.1 Fab TA_2 (Fab, V domains shown)
VH: B1 VH with A27D, R44K, G56S
VL: B1 VL with F36Y, S46A, H89Q, Y92N
Take B10: in the test with chicken IgY (chicken) [2], the Kd is 4.21 nM, the off-rate constant (koff) was 0.000383 s⁻¹ and the kon was found to be 90900 M⁻¹ s⁻¹.

B11: clone 2.1 Fab CB_10 (clonal burst) (Fab, V domains shown)
VH: B1 VH with A27D, R44K, G56S, A96G
VL: B1 VL with F36Y, S46A, H89Q, Y92N, S93R
For the molecule B11, in the test with chicken IgY (chicken) [2], the Kd came to 0.127 nM, the off-rate constant (koff) was found to be 3.73e-05 s⁻¹ and the kon is 294000 M⁻¹ s⁻¹.
